Test [1] has as its target GFP-Caprin-1(356-386) (UniProt Q14444). Kind of test: ITC. To be noted: 25°C, 150 mM NaCl, 10 mM MgCl2.
For test [2], the target named is GFP-USP10(1-28) (UniProt Q14694). Kind of test: ITC. To be noted: 25°C, 150 mM NaCl, 10 mM MgCl2.

The KD is the free concentration of one partner at which half of the binding sites on the other are occupied at equilibrium, for simple one-to-one binding. The low end stands for tighter binding, the high end for weaker binding.

For G3BP1 NTF2-like domain (G3BP1-NTF2), the equilibrium dissociation constant (KD) was 1.4 μM (1.1 / 1.7) in test [1] (pH 5.6), 4 ± 2 µM in test [1] (pH 7.4), 0.5 μM (0.3 / 0.7) in test [2] (pH 5.6) and 1.5 ± 0.5 µM in test [2] (pH 7.4).

Values taken from article doi:10.1101/2021.02.05.429362.
